Measurements as given in patent publication US20070082843A1.

Target: melanocortin-4 receptor (MC4R) (UniProt P32245)
Experiment: competitive binding vs [125I]-NDP-alpha-MSH (receptor not given; MC4R by Example 3)

Sequence of UniProt P32245 (P32245 whole entry): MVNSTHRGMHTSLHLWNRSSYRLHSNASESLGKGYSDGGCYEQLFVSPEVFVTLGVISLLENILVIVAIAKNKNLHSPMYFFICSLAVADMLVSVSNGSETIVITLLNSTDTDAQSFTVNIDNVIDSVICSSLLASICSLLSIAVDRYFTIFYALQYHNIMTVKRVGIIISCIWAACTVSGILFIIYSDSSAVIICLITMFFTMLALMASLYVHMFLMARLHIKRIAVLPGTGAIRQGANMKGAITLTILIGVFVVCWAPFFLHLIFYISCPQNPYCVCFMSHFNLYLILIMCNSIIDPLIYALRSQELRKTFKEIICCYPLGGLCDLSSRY

IC50: 0.005 to 0.03 µM
Substance: melanotan II (MTII) (peptide)
